Results reported in IntAct's records for PubMed 19497856.

B1: Homeobox protein SIX1 (Homo sapiens), Q15475 (parent)
chain: MSMLPSFGFTQEQVACVCEVLQQGGNLERLGRFLWSLPACDHLHKNESVLKAKAVVAFHRGNFRELYKILESHQFSPHNHPKLQQLWLKAHYVEAEKLRGRPLGAVGKYRVRRKFPLPRTIWDGEETSYCFKEKSRGVLREWYAHNPYPSPREKRELAEATGLTTTQVSNWFKNRRQRDRAAEAKERENTENNNSSSNKQNQLSPLEGGKPLMSSSEEEFSPPQSPDQNSVLLLQGNMGHARSSNYSLPGLTASQPSHGLQTHQHQLQDSLLGPLTSSLVDLGS
partner: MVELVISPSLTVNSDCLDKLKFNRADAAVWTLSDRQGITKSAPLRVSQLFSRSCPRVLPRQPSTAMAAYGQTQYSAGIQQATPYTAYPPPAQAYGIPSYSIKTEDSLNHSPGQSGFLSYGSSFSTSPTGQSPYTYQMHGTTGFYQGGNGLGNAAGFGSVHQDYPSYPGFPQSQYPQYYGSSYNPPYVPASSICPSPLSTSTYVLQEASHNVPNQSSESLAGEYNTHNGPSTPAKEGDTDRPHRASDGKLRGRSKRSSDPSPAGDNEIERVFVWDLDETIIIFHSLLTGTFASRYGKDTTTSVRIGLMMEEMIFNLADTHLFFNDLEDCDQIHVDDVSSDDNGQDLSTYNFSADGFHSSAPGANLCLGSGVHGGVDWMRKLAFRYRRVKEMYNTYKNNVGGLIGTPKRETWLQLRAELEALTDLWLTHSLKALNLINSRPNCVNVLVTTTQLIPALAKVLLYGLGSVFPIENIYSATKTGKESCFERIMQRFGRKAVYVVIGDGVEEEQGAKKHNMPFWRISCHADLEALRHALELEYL

Variants of: B1
Details: with eya2_human EYA2, O00167

Row | effect of a mutation on the interaction | Variant
1 | decreasing interaction strength | MSMLPSFGFTQEQVACECEVLQQGGNLERLGRFLWSLPACDHLHKNESVLKAKAVVAFHRGNFRELYKILESHQFSPHNHPKLQQLWLKAHYVEAEKLRGRPLGAVGKYRVRRKFPLPRTIWDGEETSYCFKEKSRGVLREWYAHNPYPSPREKRELAEATGLTTTQVSNWFKNRRQRDRAAEAKERENTENNNSSSNKQNQLSPLEGGKPLMSSSEEEFSPPQSPDQNSVLLLQGNMGHARSSNYSLPGLTASQPSHGLQTHQHQLQDSLLGPLTSSLVDLGS [V17E]
